Measurements from the supplement of paper PMC11780869.

System: Bacillus subtilis
Test: cleaved RNA product abundance (RNA/gDNA barcode ratio) relative to median wild-type variant (ratio to wild type); higher = more accumulation of the downstream cleavage product
Method in brief: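 Sequencing of barcodes from gel-selected, reverse-transcribed cleaved RNA and from genomic DNA, with UMI collapsing, yielded a per-construct RNA:gDNA ratio. Scaled to the median construct with the unmutated site, this ratio is the cleaved product abundance. The barcoded reporters (truncated aprE or tetM mRNAs with mutagenized RNase Y cleavage-site windows) were integrated into the B. subtilis chromosome, and cultures grew in LB at 37°C from OD600 0.0003 to 0.3.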

[1] = experiment (reporter, strain, medium): exp 2b: truncated aprE reporter, strain BJT200, cleavage site: cggR-gapA (positions -7 to +36 mutated)
[2] = experiment (reporter, strain, medium): exp 4a: truncated aprE reporter, strain BJT201 with 2% xylose (RNase J1 expressed), cleavage site: cggR-gapA (positions -7 to +36 mutated)
[3] = experiment (reporter, strain, medium): exp 8a: truncated aprE reporter, strain BJT201 with 2% xylose (RNase J1 expressed), cleavage site: glnRA (positions -5 to +31 mutated)

| Sequence | cleaved RNA product abundance [2] | cleaved RNA product abundance [3] | further results |
| --- | --- | --- | --- |
| ACAGACGAAGGAGCCGCAAAAAAGTTATTAAGGAATGAATAATCCCTCAATATAAATATCTCTCACTTATTTAAA | 0.156 | – | cleaved RNA product abundance [1]: 0.112 |
| CGACATGTCCCGCTTCTTTCATTATTCCGTTACCAACTGTTTTGCTATATACATTTACCTTTTAAGAGGAGGAAT | – | 0.289 | – |
| ACAGACGAAGGAGCCGCAAAGAATTTATTAAGGGATGAATCATCCCTCAATATAAATATCTCTCACTTATTTAAA | 0.545 | – | – |
| CGACATGTCCCGCTTCTTTCATTAATCCGTTAGCAACTGTTTTGCTATATTAATTTACCTTTTAAGAGGAGGAAT | – | 0.236 | – |
| ACAGACGAAGGAGCCGCAAAGAAATTATTAAGGGATGAATAATCCCTCAATATAAATAGCTCTCACTTATTTAAA | 0.435 | – | – |
| ACAGACGAAGGAGCCGCAAAGAAGTTATTAAGGGATGAATAATCCCACAATATAAAAATCTCTCACTTATTTAAA | 0.25 | – | – |
| CGACATGTCCCGCTTCTTTCATTAATCCGTCAGCAACTATTTTGCTATATACATTTACCTTTTAAGAGGAGGAAT | – | 0.387 | – |
| CGACATGTCCCGCTTCTTTCATTAATCCGTTAGCAATTGTTTTGCTATATACTTTTACCTTTTAAGAGGAGGAAT | – | 0.272 | – |
| CGACATGTCCCGCTTCTTTCATTAATTCGTTAGTAACTGTTTTGCTATATACATTTACCTTTTAAGAGGAGGAAT | – | 0.445 | – |
| CGACATGTCCCGCTTCTTTCATTAATCCGTGAGCAAGTGTTTTGCTATATACATTTACCTTTTAAGAGGAGGAAT | – | 0.375 | – |
| CGACATGTCCCGCTTCTTTCATTAATCCGTTAGCAACTGTTAAGCTATATACATTTACCTTTTAAGAGGAGGAAT | – | 0.279 | – |
| CGACATGTCCCGCTTCTTTCATTAATCCGTTAACAACTGTTTTGCTATATACATTTACCTTTTAAGAGGAGGAAT | – | 0.217 | – |
| CGACATGTCCCGCTTCTTTCATTAATCCCTTAGCAACTGTTTTGCTATATACTTTTACCTTTTAAGAGGAGGAAT | – | 0.166 | – |
| ACAGACGAAGGAGCCGCAAATAAGTTATTAAGGGATGAATAATCCCTCGATATAAATATCTCTCACTTATTTAAA | – | – | cleaved RNA product abundance [1]: 0.459 |
| ACAGACGAAGGAGCCGCAAAGTAGTTATTTAGGGATGAATAATCCCTCAATATAAATATCTCTCACTTATTTAAA | 0.869 | – | cleaved RNA product abundance [1]: 0.726 |
| CGACATGTCCCGCTTCTTTCATTAACCCGTTAGCAACTGTTTTGCTATATACATTTACCATTTAAGAGGAGGAAT | – | 1.41 | – |
| ACAGACGAAGGAGCCGCATAGAAGTTATTAAGGAATGAATATTCCCTCAATATAAATATCTCTCACTTATTTAAA | 0.263 | – | – |
| ACAGACGAAGGAGCCGCAAAGAAGTTATAAAGGGATGAATAATCCCTCAACATAAATATCTCTCACTTATTTAAA | 0.304 | – | – |
| CGACATGTCCCGCTTCTTTCATTAATCCGTTAGCAACTGTTATGCCATATACATTTACCTTTTAAGAGGAGGAAT | – | 0.232 | – |
| CGACATGTCCCGCTTCTTTCATTAATCCGTTCGCAACTGTTATGCTATATACATTTACCTTTTAAGAGGAGGAAT | – | 0.349 | – |
| ACAGACGAAGGAGCCGCAAAGAAGTTTTTAAGAGATGAATAATCCCTCAATATAAATATCTCTCACTTATTTAAA | 0.183 | – | – |

| Sequence | cleaved RNA product abundance [2] | cleaved RNA product abundance [3] | further results |
| --- | --- | --- | --- |
| ACAGACGAAGGAGCCGCAAAGAAGTTAATAAGGGATGAATAATCCCTCATTATAAATATCTCTCACTTATTTAAA | 0.794 | – | – |
| ACAGACGAAGGAGCCGCAATGAAGTTATTAAGGGATGAATAATCCCTAAATATAAATATCTCTCACTTATTTAAA | 0.792 | – | – |
| CGACATGTCCCGCTTCTTTCATTAATACGTTAGCAACTGTTTTACTATATACATTTACCTTTTAAGAGGAGGAAT | – | 0.547 | – |
| ACAGACGAAGGAGCCGCAAAGAAGTAATTAAGGGATGAATAATCCTTCAATATAAATATCTCTCACTTATTTAAA | 0.187 | – | cleaved RNA product abundance [1]: 0.188 |
| CGACATGTCCCGCTTCTTTCATTAATCCGTTAGCAACTGTTCTGCTATATACATGTACCTTTTAAGAGGAGGAAT | – | 0.386 | – |
| CGACATGTCCCGCTTCTTTCATTAATCCGTTAGCAATTGTTTTGCTATATAGATTTACCTTTTAAGAGGAGGAAT | – | 1.51 | – |
| CGACATGTCCCGCTTCTTTCATTAATCCGTTAGCAACCGTGTTACTATATAAATTTACCTTTTAAGAGGAGGAAT | – | 0.271 | – |
| ACAGACGAAGGAGCCGCAAAGAAGTTATTAAGGGATGAATAAACCCTCAATATATATATCTCTCACTTATTTAAA | 0.477 | – | cleaved RNA product abundance [1]: 0.488 |
| ACAGACGAAGGAGCCGCAAAGAAATTATTAAGGGATGAATAATCCCTCAATATAAATCTCTCTCACTTATTTAAA | 0.66 | – | – |
| ACAGACGAAGGAGCCGCAAAGAAGTTATTAAGGGATCAATAATCGCTCAATATAAATATCTCTCACTTATTTAAA | 0.0655 | – | – |
| CGACATGTCCCGCTTCTTTCATTAATCCTTAAGCAACTGTTTTGCTATATACATTTACCTTTTAAGAGGAGGAAT | – | 0.419 | – |
| CGACATGTCCCGCTTCTTTCATTAATCCGTTAGCAACTGTTTGGCTATATATATTTACCTTTTAAGAGGAGGAAT | – | 0.546 | – |
| CGACATGTCCCGCTTCTTTCATTAATCCGTTAGCAACTGTTTTGCTATATATATTTACCCTTTAAGAGGAGGAAT | – | 0.959 | – |
| ACAGACGAAGGAGCCGCAAAAAAATTATAAAGGGATGAATAATCCCTCAATATAAATATCTCTCACTTATTTAAA | 0.268 | – | – |
| CGACATGTCCCGCTTCTTTCATTACTCCGTTAGCAACAGTTTTGCTATATACATTTACCTTTTAAGAGGAGGAAT | – | 0.834 | – |
| ACAGACGAAGGAGCCGCAAAGAAGTTATAAAGGGATGAATAATCCCTCAATATATATATCTCTCACTTATTTAAA | 0.58 | – | cleaved RNA product abundance [1]: 0.359 |
| ACAGACGAAGGAGCCGCAAAGAAGTTATTAAGTGATGAATAATCCCCCAATATAAATATCTCTCACTTATTTAAA | 0.127 | – | – |
| ACAGACGAAGGAGCCGCAAAGAAGTAATTAAGGGATGAATAATTCCTCAATATAAATATCTCTCACTTATTTAAA | 0.263 | – | – |
| ACAGACGAAGGAGCCGCAAAGAAGTTATTAAGGGACGTATAATCCCTCAATATAAATATCTCTCACTTATTTAAA | 0.705 | – | – |
| CGACATGTCCCGCTTCTTTCATTAATCCGTTATCAACTGTTTTGCTATATACATTTACCTTTTAAGAGGAGGAAT | – | 0.298 | – |
| CGACATGTCCCGCTTCTTTCATTAATCGGTTATCAACTGTTTTGCTATATACATTTACCTTTTAAGAGGAGGAAT | – | 0.206 | – |

| Sequence | cleaved RNA product abundance [2] | cleaved RNA product abundance [3] | further results |
| --- | --- | --- | --- |
| ACAGACGAAGGAGCCGCAAAGAAGTTATTAAGGGATGAACAATCCCTCATTATAAATATCTCTCACTTATTTAAA | 0.321 | – | cleaved RNA product abundance [1]: 0.22 |
| ACAGACGAAGGAGCCGCAAAGTAGTTATTAAGGGATGAATAATCCCTTAATATAAATATCTCTCACTTATTTAAA | – | – | cleaved RNA product abundance [1]: 0.869; cleaved RNA product abundance (experiment (reporter, strain, medium): exp 6: tetM reporter, strain 168, cleavage site: cggR-gapA (positions -7 to +36 mutated)): 0.729 |
| ACAGACGAAGGAGCCGCAAAGAAGTTATCAAGGGATGAATAATCCATCAATATAAATATCTCTCACTTATTTAAA | 0.321 | – | – |
| ACAGACGAAGGAGCCGCACAGAAGTCATTAAGGGATGAATAATCCCTCAATATAAATATCTCTCACTTATTTAAA | 0.43 | – | – |
| ACAGACGAAGGAGCCGCGAAGAAGTTATTAAGGGATGAATAATACCTCAATATAAATATCTCTCACTTATTTAAA | 0.117 | – | – |
| CGACATGTCCCGCTTCTTTCATTAATCCGTTATTAACTGTTTTACTATATACATTTACCTTTTAAGAGGAGGAAT | – | 0.408 | – |
| ACAGACGAAGGAGCCGCAAAAAAGTTATTACGGGATGAATAATCCCTCAATATAAATATCTCTCACTTATTTAAA | 0.364 | – | cleaved RNA product abundance [1]: 0.329 |
| CGACATGTCCCGCTTCTTTCATTAAACCGTGAACAACTGTGTTGCAATATACATGTACCTTTTAAGAGGAGGAAT | – | 0.222 | – |
| CGACATGTCCCGCTTCTTTCATTAATCCGTTAGCAACAGATTTGCTATATACATTTACCTTTTAAGAGGAGGAAT | – | 0.68 | – |
| ACAGACGAAGGAGCCGCAAAGAAGTTATTAAGGGATAAATAATTCCTCAATATAAATATCTCTCACTTATTTAAA | 0.294 | – | – |
| ACAGACGAAGGAGCCGCAAAGAAGTTATTAAGGGATGAATACTCCCTCAAGATAAATATCTCTCACTTATTTAAA | – | – | cleaved RNA product abundance [1]: 0.156 |
| ACAGACGAAGGAGCCGCAAATAAGTTATTAAGGGATGAATAATCCCTCAATATAAAGATCTCTCACTTATTTAAA | 0.565 | – | cleaved RNA product abundance [1]: 0.535 |
| ACAGACGAAGGAGCCGCAAACAAGTTATTCAGGGATGAATAATCCCTCAATATAAATATCTCTCACTTATTTAAA | – | – | cleaved RNA product abundance [1]: 0.495 |
| ACAGACGAAGGAGCCGCAAAGAAGTAATTATGGGATGAATAATCCCTCAATATAAATATCTCTCACTTATTTAAA | 0.169 | – | – |
| CGACATGTCCCGCTTCTTTCATTAATCCGTTAGCAACTGTTTTGCTAAATACATTTAACTTTTAAGAGGAGGAAT | – | 0.445 | – |
| ACAGACGAAGGAGCCGCAAAGAAGTTATTATGAGATGAATAATCCCTCAATATAAATATCTCTCACTTATTTAAA | 0.147 | – | cleaved RNA product abundance [1]: 0.0958 |
| ACAGACGAAGGAGCCGCAAAGAAGTTATTAAGGGATGAATAATACCTCAATATAAATACCTCTCACTTATTTAAA | 0.162 | – | – |
| ACAGACGAAGGAGCCGCAAAGAAGTTATTAAGGGATGAATAATTCCTCAATATAATTATCTCTCACTTATTTAAA | 0.254 | – | cleaved RNA product abundance [1]: 0.298 |
| ACAGACGAAGGAGCCGCAAATAAGTTATTAAGGGATGAATAATCCCTCAATGTAAATATCTCTCACTTATTTAAA | 0.178 | – | – |
| ACAGACGAAGGAGCCGCAAAGAAGTTATTAAAGGATCAATAATCCCTCAATATAAATATCTCTCACTTATTTAAA | 0.115 | – | – |
